In patent EP4692114A1, “CALCITONIN ANALOGUE, AND DERIVATIVE THEREOF AND USE THEREOF” (Hangzhou Sciwind Biosciences Co., Ltd., priority 2023, dated 2024):
*1 amine or outer side, *2 acyl side, *3 side chain or, on linkers, in order; H or OH if unused. Primed or numbered codes have the meaning given here. The star is where a group is joined. C20 diacid = O=C(O)CCCCCCCCCCCCCCCCCCC(=O)*; C18 diacid = O=C(O)CCCCCCCCCCCCCCCCC(=O)*; γGlu = O=C(O)[C@H](CCC(=O)[*:2])N[*:1]; βAsp = O=C(O)[C@H](CC(=O)[*:2])N[*:1]; Inp′ = not defined here; AEEA = NCCOCCOCC(=O)O

T1: human amylin receptor (AMY3) on CHO-K1/Gal5/AMY3 cells (human, UniProt P30988 25-474; O60896 24-148)
T1 sequence (looked up) 1: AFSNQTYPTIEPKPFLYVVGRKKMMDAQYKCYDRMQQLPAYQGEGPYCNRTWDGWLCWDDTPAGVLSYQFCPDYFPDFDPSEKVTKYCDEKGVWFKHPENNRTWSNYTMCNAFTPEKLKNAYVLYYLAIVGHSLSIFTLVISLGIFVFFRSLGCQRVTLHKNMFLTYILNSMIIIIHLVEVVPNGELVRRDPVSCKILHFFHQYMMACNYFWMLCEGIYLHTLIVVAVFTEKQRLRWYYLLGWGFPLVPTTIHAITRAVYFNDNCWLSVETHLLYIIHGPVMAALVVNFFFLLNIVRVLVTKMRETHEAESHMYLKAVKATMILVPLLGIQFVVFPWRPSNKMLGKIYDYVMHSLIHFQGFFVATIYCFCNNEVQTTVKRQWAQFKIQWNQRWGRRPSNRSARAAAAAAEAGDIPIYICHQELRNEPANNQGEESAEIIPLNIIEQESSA
T1 sequence (looked up) 2: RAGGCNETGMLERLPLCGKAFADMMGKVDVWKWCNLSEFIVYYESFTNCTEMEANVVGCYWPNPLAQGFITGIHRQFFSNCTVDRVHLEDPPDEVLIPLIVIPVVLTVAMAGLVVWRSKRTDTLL


Molecular target: T1, human amylin receptor (AMY3) on …
Assay: cell-based or functional assay

| EC50/nM, CRE-luciferase in amylin receptor/CRE-luc CHO cells | Binder |
| --- | --- |
| 0.017 nM | {C20 diacid-γGlu}-SSQLSTAVLGRLSQELHRLQDYPRTDVGSGSP-NH2 (SMILES CC(C)C[C@H](NC(=O)[C@H](CCCNC(=N)N)NC(=O)CNC(=O)[C@H](CC(C)C)NC(=O)[C@@H](NC(=O)[C@H](C)NC(=O)[C@@H](NC(=O)[C@H](CO)NC(=O)[C@H](CC(C)C)NC(=O)[C@H](CCC(N)=O)NC(=O)[C@H](CO)NC(=O)[C@H](CO)NC(=O)CC[C@H](NC(=O)CCCCCCCCCCCCCCCCCCC(=O)O)C(=O)O)[C@@H](C)O)C(C)C)C(=O)N[C@@H](CO)C(=O)N[C@@H](CCC(N)=O)C(=O)N[C@@H](CCC(=O)O)C(=O)N[C@@H](CC(C)C)C(=O)N[C@@H](Cc1c[nH]cn1)C(=O)N[C@@H](CCCNC(=N)N)C(=O)N[C@@H](CC(C)C)C(=O)N[C@@H](CCC(N)=O)C(=O)N[C@@H](CC(=O)O)C(=O)N[C@@H](Cc1ccc(O)cc1)C(=O)N1CCC[C@H]1C(=O)N[C@@H](CCCNC(=N)N)C(=O)N[C@H](C(=O)N[C@@H](CC(=O)O)C(=O)N[C@H](C(=O)NCC(=O)N[C@@H](CO)C(=O)NCC(=O)N[C@@H](CO)C(=O)N1CCC[C@H]1C(N)=O)C(C)C)[C@@H](C)O) [calcitonin derivative M30] |
| 0.017 nM | {C20 diacid-βAsp}-ASQLSTAVLGRLSEELHRLQDYPRTDVGSGSP-NH2 (SMILES CC(C)C[C@H](NC(=O)[C@H](CCCNC(=N)N)NC(=O)CNC(=O)[C@H](CC(C)C)NC(=O)[C@@H](NC(=O)[C@H](C)NC(=O)[C@@H](NC(=O)[C@H](CO)NC(=O)[C@H](CC(C)C)NC(=O)[C@H](CCC(N)=O)NC(=O)[C@H](CO)NC(=O)[C@H](C)NC(=O)C[C@H](NC(=O)CCCCCCCCCCCCCCCCCCC(=O)O)C(=O)O)[C@@H](C)O)C(C)C)C(=O)N[C@@H](CO)C(=O)N[C@@H](CCC(=O)O)C(=O)N[C@@H](CCC(=O)O)C(=O)N[C@@H](CC(C)C)C(=O)N[C@@H](Cc1c[nH]cn1)C(=O)N[C@@H](CCCNC(=N)N)C(=O)N[C@@H](CC(C)C)C(=O)N[C@@H](CCC(N)=O)C(=O)N[C@@H](CC(=O)O)C(=O)N[C@@H](Cc1ccc(O)cc1)C(=O)N1CCC[C@H]1C(=O)N[C@@H](CCCNC(=N)N)C(=O)N[C@H](C(=O)N[C@@H](CC(=O)O)C(=O)N[C@H](C(=O)NCC(=O)N[C@@H](CO)C(=O)NCC(=O)N[C@@H](CO)C(=O)N1CCC[C@H]1C(N)=O)C(C)C)[C@@H](C)O) [calcitonin derivative M53] |
| 0.082 nM | {C20 diacid-Inp′}-ASQLSTAVLGRLSDELHRLQDYPRTDVGSGSP-NH2 [calcitonin derivative M47] |
| 0.016 nM | {C20 diacid-γGlu}-ASQLSTAVLGRLSQELHRLQDYPRTQVGSGSP-NH2 (SMILES CC(C)C[C@H](NC(=O)[C@H](CCCNC(=N)N)NC(=O)CNC(=O)[C@H](CC(C)C)NC(=O)[C@@H](NC(=O)[C@H](C)NC(=O)[C@@H](NC(=O)[C@H](CO)NC(=O)[C@H](CC(C)C)NC(=O)[C@H](CCC(N)=O)NC(=O)[C@H](CO)NC(=O)[C@H](C)NC(=O)CC[C@H](NC(=O)CCCCCCCCCCCCCCCCCCC(=O)O)C(=O)O)[C@@H](C)O)C(C)C)C(=O)N[C@@H](CO)C(=O)N[C@@H](CCC(N)=O)C(=O)N[C@@H](CCC(=O)O)C(=O)N[C@@H](CC(C)C)C(=O)N[C@@H](Cc1c[nH]cn1)C(=O)N[C@@H](CCCNC(=N)N)C(=O)N[C@@H](CC(C)C)C(=O)N[C@@H](CCC(N)=O)C(=O)N[C@@H](CC(=O)O)C(=O)N[C@@H](Cc1ccc(O)cc1)C(=O)N1CCC[C@H]1C(=O)N[C@@H](CCCNC(=N)N)C(=O)N[C@H](C(=O)N[C@@H](CCC(N)=O)C(=O)N[C@H](C(=O)NCC(=O)N[C@@H](CO)C(=O)NCC(=O)N[C@@H](CO)C(=O)N1CCC[C@H]1C(N)=O)C(C)C)[C@@H](C)O) [calcitonin derivative M15] |
| 0.063 nM | {C18 diacid-Inp′}-ASQLSTAVLGRLSDELHRLQDYPRTDVGSGSP-NH2 [calcitonin derivative M48] |
| 0.017 nM | {C20 diacid-γGlu}-ASQLSTAVLGRLSQELHRLEEYPRTDVGSGSP-NH2 (SMILES CC(C)C[C@H](NC(=O)[C@H](CCCNC(=N)N)NC(=O)CNC(=O)[C@H](CC(C)C)NC(=O)[C@@H](NC(=O)[C@H](C)NC(=O)[C@@H](NC(=O)[C@H](CO)NC(=O)[C@H](CC(C)C)NC(=O)[C@H](CCC(N)=O)NC(=O)[C@H](CO)NC(=O)[C@H](C)NC(=O)CC[C@H](NC(=O)CCCCCCCCCCCCCCCCCCC(=O)O)C(=O)O)[C@@H](C)O)C(C)C)C(=O)N[C@@H](CO)C(=O)N[C@@H](CCC(N)=O)C(=O)N[C@@H](CCC(=O)O)C(=O)N[C@@H](CC(C)C)C(=O)N[C@@H](Cc1c[nH]cn1)C(=O)N[C@@H](CCCNC(=N)N)C(=O)N[C@@H](CC(C)C)C(=O)N[C@@H](CCC(=O)O)C(=O)N[C@@H](CCC(=O)O)C(=O)N[C@@H](Cc1ccc(O)cc1)C(=O)N1CCC[C@H]1C(=O)N[C@@H](CCCNC(=N)N)C(=O)N[C@H](C(=O)N[C@@H](CC(=O)O)C(=O)N[C@H](C(=O)NCC(=O)N[C@@H](CO)C(=O)NCC(=O)N[C@@H](CO)C(=O)N1CCC[C@H]1C(N)=O)C(C)C)[C@@H](C)O) [calcitonin derivative M14] |
| 0.016 nM | {C20 diacid-Inp′-AEEA-AEEA}-ASQLSTAVLGRLSEELHRLQDYPRTDVGSGSP-NH2 [calcitonin derivative M62] |
| 0.017 nM | {C20 diacid-γGlu}-ASQLSTSVLGRLSQELHRLQDYPRTDVGSGSP-NH2 (SMILES CC(C)C[C@H](NC(=O)[C@H](CCCNC(=N)N)NC(=O)CNC(=O)[C@H](CC(C)C)NC(=O)[C@@H](NC(=O)[C@H](CO)NC(=O)[C@@H](NC(=O)[C@H](CO)NC(=O)[C@H](CC(C)C)NC(=O)[C@H](CCC(N)=O)NC(=O)[C@H](CO)NC(=O)[C@H](C)NC(=O)CC[C@H](NC(=O)CCCCCCCCCCCCCCCCCCC(=O)O)C(=O)O)[C@@H](C)O)C(C)C)C(=O)N[C@@H](CO)C(=O)N[C@@H](CCC(N)=O)C(=O)N[C@@H](CCC(=O)O)C(=O)N[C@@H](CC(C)C)C(=O)N[C@@H](Cc1c[nH]cn1)C(=O)N[C@@H](CCCNC(=N)N)C(=O)N[C@@H](CC(C)C)C(=O)N[C@@H](CCC(N)=O)C(=O)N[C@@H](CC(=O)O)C(=O)N[C@@H](Cc1ccc(O)cc1)C(=O)N1CCC[C@H]1C(=O)N[C@@H](CCCNC(=N)N)C(=O)N[C@H](C(=O)N[C@@H](CC(=O)O)C(=O)N[C@H](C(=O)NCC(=O)N[C@@H](CO)C(=O)NCC(=O)N[C@@H](CO)C(=O)N1CCC[C@H]1C(N)=O)C(C)C)[C@@H](C)O) [calcitonin derivative M29] |
| 0.044 nM | {C20 diacid-γGlu-AEEA-AEEA-AEEA-AEEA-AEEA-AEEA}-ASQLSTAVLGRLSEELHRLQDYPRTDVGSGSP-NH2 (SMILES CC(C)C[C@H](NC(=O)[C@H](CCCNC(=N)N)NC(=O)CNC(=O)[C@H](CC(C)C)NC(=O)[C@@H](NC(=O)[C@H](C)NC(=O)[C@@H](NC(=O)[C@H](CO)NC(=O)[C@H](CC(C)C)NC(=O)[C@H](CCC(N)=O)NC(=O)[C@H](CO)NC(=O)[C@H](C)NC(=O)COCCOCCNC(=O)COCCOCCNC(=O)COCCOCCNC(=O)COCCOCCNC(=O)COCCOCCNC(=O)COCCOCCNC(=O)CC[C@H](NC(=O)CCCCCCCCCCCCCCCCCCC(=O)O)C(=O)O)[C@@H](C)O)C(C)C)C(=O)N[C@@H](CO)C(=O)N[C@@H](CCC(=O)O)C(=O)N[C@@H](CCC(=O)O)C(=O)N[C@@H](CC(C)C)C(=O)N[C@@H](Cc1c[nH]cn1)C(=O)N[C@@H](CCCNC(=N)N)C(=O)N[C@@H](CC(C)C)C(=O)N[C@@H](CCC(N)=O)C(=O)N[C@@H](CC(=O)O)C(=O)N[C@@H](Cc1ccc(O)cc1)C(=O)N1CCC[C@H]1C(=O)N[C@@H](CCCNC(=N)N)C(=O)N[C@H](C(=O)N[C@@H](CC(=O)O)C(=O)N[C@H](C(=O)NCC(=O)N[C@@H](CO)C(=O)NCC(=O)N[C@@H](CO)C(=O)N1CCC[C@H]1C(N)=O)C(C)C)[C@@H](C)O) [calcitonin derivative M64] |
| 0.037 nM | {C20 diacid-γGlu-AEEA-AEEA-AEEA-AEEA}-ASQLSTAVLGRLSEELHRLQDYPRTDVGSGSP-NH2 (SMILES CC(C)C[C@H](NC(=O)[C@H](CCCNC(=N)N)NC(=O)CNC(=O)[C@H](CC(C)C)NC(=O)[C@@H](NC(=O)[C@H](C)NC(=O)[C@@H](NC(=O)[C@H](CO)NC(=O)[C@H](CC(C)C)NC(=O)[C@H](CCC(N)=O)NC(=O)[C@H](CO)NC(=O)[C@H](C)NC(=O)COCCOCCNC(=O)COCCOCCNC(=O)COCCOCCNC(=O)COCCOCCNC(=O)CC[C@H](NC(=O)CCCCCCCCCCCCCCCCCCC(=O)O)C(=O)O)[C@@H](C)O)C(C)C)C(=O)N[C@@H](CO)C(=O)N[C@@H](CCC(=O)O)C(=O)N[C@@H](CCC(=O)O)C(=O)N[C@@H](CC(C)C)C(=O)N[C@@H](Cc1c[nH]cn1)C(=O)N[C@@H](CCCNC(=N)N)C(=O)N[C@@H](CC(C)C)C(=O)N[C@@H](CCC(N)=O)C(=O)N[C@@H](CC(=O)O)C(=O)N[C@@H](Cc1ccc(O)cc1)C(=O)N1CCC[C@H]1C(=O)N[C@@H](CCCNC(=N)N)C(=O)N[C@H](C(=O)N[C@@H](CC(=O)O)C(=O)N[C@H](C(=O)NCC(=O)N[C@@H](CO)C(=O)NCC(=O)N[C@@H](CO)C(=O)N1CCC[C@H]1C(N)=O)C(C)C)[C@@H](C)O) [calcitonin derivative M63] |
